Type in all cases: biochemical, Quillaja saponaria
Test [1] in a line: Experiment 5-1: screening of additional glucosidases for deglycosylation with purified QS-18 (0.04 mg/ml) at pH 7.5 and 30 deg C. The settings on record: pH 7.5, 30 degrees C, 18 hours, LCMS/MS. On the procedure:
The 94 additional genes, together with positive control (DNA encoding SEQ ID No. 262) and negative control, were transformed, expressed, lysed and reacted in the same manner as described above for Experiment 4-1, except the reaction was incubated at 30 degrees C. for 18 hours.
Samples were analysed by LCMS/MS according to the procedure in Experiment 4-1.

Test [2] is described as follows: Experiment 5-2: screening of additional glucosidases for deglycosylation with QS-18 in crude bark extract (80%) at pH 6 and 35 deg C. To be noted: CBE 80%, pH 6, 35 deg C, 18 hours; UV HPLC. Put shortly:
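Clarified glucosidase lysate (prepared at pH 6) was incubated with pH 6-adjusted crude bark extract at 35 deg C with shaking for 18 hours. Reactions were quenched with MeCN containing 2% AcOH and hexanophenone, then analysed by UV HPLC.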

Test [3] in a line: Experiment 5-3: screening of additional glucosidases for deglycosylation with QS-18 in treated bark extract (80%) at pH 6 and 35 deg C. The settings on record: TBE 80% (QS-21 approx. 4 g/L), pH 6, 35 deg C; UV HPLC. The procedure: Experiment 5-1 was repeated, replacing CBE with Treated Bark Extract (TBE) at pH 6. TBE was prepared from CBE by PVPP treatment and concentration, to provide TBE with a QS-21 concentration of approximately 4 g/L. TBE was adjusted to pH 6 by dropwise addition of 2M NaOH with stirring.

B1: 870 (protein)
chain: MTEQTHTKAKDLDLQEEASLTSGSDSWHLQGLPDKGYEGYMITDGPYGLRKATGSDVYGSVPATCFPPTAGLASSWNPDLTYQVGQAMGEECIQEKVAVILGPGINIKRSPLGGRNFEFYSEDPVLAGHEAAGLVEGVQSKGVGTSLKHFAANNQETDRLRVSSDVDVRTLREIYLPAFEYVVKNAKPWTIMCAYNKVNGVFSSENRWLLTDVLRGEWGYQGMVMSDWGAVHNRVDALQAGLNLEMPPSRTDDQVVQAVQAGKLDKEQLDRMAQGILDLIDKARPAMSQQGYRYDVQEHNDMARRAAQESIVLLRNEDRILPLDPQKKVAVIGEFARTPRYQGGGSSHITPTEVSSALDGFKEAGMNVDFAPGFTLDEKEQDPALTRQALEVARGADTVVLFLGLPEYAESEGFDRTSMDLPEKQVALLKAVSEVNDRVVAVLSNGAVVTVADWMDKTKGLLETWLLGQEGGRAVVDVLTGAATPSGHLPETIPVRLEDNPTITSFPGEEGHSRYGEGVYVGYRYYDTFQRPVAFPFGFGLSYADFALDQVAVTKTGASSARVEVTVTNTSQVDGAQTVQVYVAPCASRVNRPSHELKAFTKVFLKAGQSSRVSMDLTERDFAYWSTAMDAWHVEAGTYRIQVGTSSRDLVAEEDLQVDGDGRFIPLNAESTMAEWRENSIGGPIMRDRIDQDGIPLPDDPNTAQLFDTMPLASVITLSGGDGNGIVADMVDRYHQALKQQGRDS
modifications: Bifidobacterium asteroides
As to B1, the “Experiment 5-1 % conv” value in test [1] is on record as 49.7%. The “Experiment 5-2 % conv” value in test [2] is less than 0.5%. In addition, the “Experiment 5-3 % conv” value in test [3] was less than 0.5%.

B2: 828 (protein, listed as Bifidobacterium pseudocatenulatum)
chain: MSEKTYPSINDLTLEEKASLTSGGDAWHLQGVEAKGIPGYMITDGPHGLRKSNSATTGEVDLNNCVPATCFPPAAGLSSSWNPELIHQVGEAMAEECIQEKVAVILGPGVNIKRNPLGGRCFEYWSEDPYLAGHEAIGIVAGVQSKGVGTSLKHFAANNQETDRLRISANISQRALREIYFPAFEHIVKEAQPWTIMCAYNCINGVHAAQDHWLLTDVLRDEWGFQGIVMSDWGADHDRVASLNAGLNLEMPPSYTDDQIVYAARDGRIQPAQLDHMAQGMIDLVNKTRAAMSIENYRFDIEAHDEVAHQAAIESMVLLKNDDAILPIAGDAKVTVIGEFARTPRYQGGGSSHITPTKMTSFLDTLTERGVDAKFAPGFTLDLEPADPALEAEAVDAAKGADVVLMFLGLPEAAESEGFDRETLDMPAKQIALLEAVAAENKNVVVVLSNGSVVTVAPWAKNAKGILESWLLGQSGGPALADVLFGKVSPSGKLAQTIPFDINDDPSTINWPGEEGHVDYGEGVFVGYRYYDTYNKAVDYPFGFGLSYATFEVSDVKAVKTGACTASVSAVVKNTSNVDAAETVQVYVAPGKADVVRPKHELKGFKKVFLKAGESAEVSFELDDRAFAYWSERFNDWHVESGEYTIEVGTSSRDIAGSAVVELDGDGKAQPLTEWSNFMEWRKDPLGSKVLEILRAEGEAGRMPVVPDNDMTRLFLDSMPINSMSVLMGADGKQIFEYMLEKYAELTK
With B2, the “Experiment 5-1 % conv” value in test [1] worked out at 50.7%. Moreover, the “Experiment 5-2 % conv” value in test [2] is less than 0.5%. The “Experiment 5-3 % conv” value in test [3] was less than 0.5%.

B3: 844 (protein, listed as Paenarthrobacter aurescens)
chain: MNPTLSAAVTAPSAGTQDAEAEIRDLAQSLTLEQQVQLLTGADVWSTHAIPEIGLSRVVMSDGPAGVRGEDFDERHDSVSLPSSSALSATWSVETARNYGQVLGQEARRKGVHAVLGPTINLHRSPLGGRHFECMSEDPRLTATMAAGYVAGVQSMGVGATPKHYLANEAETERFTADSVVDERPLRELYLAAFEDAITEARAWLVMSSYNSINGTTASENKLLETPLSTEWGFDGVVVSDWTGVRSIDAANAHQDLEMPGPVGHWGPKLLAAVNEGRVSREAILEKVTRILRLAARVGSLEGFEPAVTHLPTELNGAAVAREVAVRGAVLVRNKGLLPLDAKALGSVAVIGHNADEARTQGGGSATVMPKYTVSPLEGLRKALPEGVKVTYARGAKVAEGIQAFPRTSLHNPVSNVPGIRVTFLAEDGTEISGEDRLASHLIWFGIGIPDGAASIRMEADWTAETAGVHHLGVGTVGRIRFVLDGTEVFNSELEDDTEVLGAALFDPPKTVHAIDTTAGQSIRIEAEYQLPKEQVIPFTAILLGEETVVAEPQAEIDAAVEAARASDVAVVVVGTNAAIESEGFDRKDLDLPGYQNQLVKAVAAANPRTVVVVNSGSPVLMPWLDTVDAVLLGWFGGQEFGSAVADILLGVEEPGGRLPTTWPSALDDVPVLNTTPTDGKVVYSEGIHIGYRAWLKQQAEGGAAPALPFGFGLGYTTFEFGKAHAPQAVTAGKDLVVHVPVKNTGTRTGREVVQVYVERTESAVERPVRWLAGYAGAHLAPAGTESVEIRIPAKAFAHYDGGWQFEQGTFRLLVGRHAADDFQSLDIELR
Take B3: the “Experiment 5-1 % conv” value in test [1] was found to be 43.6%. The “Experiment 5-2 % conv” value in test [2] was less than 0.5%. Further, the “Experiment 5-3 % conv” value in test [3] is less than 0.5%.

B4: 873 (protein, listed as Bifidobacterium longum)
chain: MSESTYPSVKDLTLEEKASLTSGGDAWHLQGVEAKGIPGYMITDGPHGLRKSLTSSTGETDLDNSVPATCFPPAAGLSSSWNPELIHKVGEAMAEECIQEKVAVILGPGVNIKRNPLGGRCFEYWSEDPYLAGHEAIGIVAGVQSKGVGTSLKHFAANNQETDRLRVDARISQRALREIYLPAFEHIVKTAQPWTIMCSYNRINGVHSAQNHWLLTDVLRDEWGFEGIVMSDWGADHDRVASLNAGLNLEMPPSYTDDQIVYAARDGRIAPAQLDRMAQGMIDLINKARAAMSIDGYRFDVDAHDEVAHQAAIESIVLLKNDDAILPLNADPAAARKIAVIGEFARTPRYQGGGSSHITPTKMTSFLDTLAERGIKADFAPGFTLDMESADPALESEAVETAKNADVVLMFLGLPEAAESEGFDRDTLDMPAKQIALLEQVAAANKNVVVVLSNGSVITVAPWAKNAKGILESWLLGQSGGPALADVIFGQVSPSGKLAQSIPLDINDDPSMLNWPGEEGHVDYGEGVFVGYRYYDTYGKVVDYPFGYGLSYATFEIADVAAAKTGANTATVTATVTNTSDVDASETVQVYVAPGKADVARPKHELKGFTKVFLKAGESKTVTIDLDERAFAYWSEKYNDWHVESGEYAIEVGTSSRDIAETVTVALDGDGKTQPLTEWSTYGEWEADPFGAKIVAAVAAAGEAGELLKLPDNAMMRMFLNSMPINSLPTLLGEGGKKIAQFMLDEYAKLSK
For the molecule B4, in test [1], the “Experiment 5-1 % conv” value amounted to 43.9%. In test [2], the “Experiment 5-2 % conv” value is on record as less than 0.5%. The “Experiment 5-3 % conv” value in test [3] was less than 0.5%.

B5: 882 (protein, listed as Acidipropionibacterium acidipropionici)
chain: MAESPIQSLSMRSLSTEQKAALTSGADFWHTESCAPLGLPAIMLTDGPHGLRKQTGSTDMLGLGSSVPATCFPPAVGLGSSWDVDLIHRVGAALGAEASIEGVAVLLGPAINIKRSPLCGRNFEYISEDPLVAGTLGAAMVEGIQSRAVGACVKHFAANNQETDRMRVSADVDPRALHEIYLRAFEQVVRRAEPWMVMCSYNRINGVPASQDHWLLTDLLRGQWGFDRVVVSDWGAVSDRVASLSAGLDLEMPGTAGRTDAQILAALASGTLDEETLDSAAARVVTLLRRAAVGAGEVSGPLDVDAHHRLAREAAARSIVLLRNEVQRSETTGDEGALLPLRPDARIAVIGAFAEQPRYQGAGSSRINPTRLDTALAEIRALASGEVSYSPGFRLTPESVGPAEELRRDAAEAASQAEVAVVFLGLGDDAESEGFDRTGIDLSADQLALLDDVLAANPNTVVVLSNGAVVALPFADRVPAILEAWLGGQAGGGGVADVLFGRVNPSGRLTETIPKRLADSPAYLDFPGEHGHVRYGEGIFVGYRWYDARELEVAFPFGHGLSYTTFSYGQASAALDEDGNITVRLPVTNTGAVAGREVVQAYVSLPGSAVQRPPRELKGFVVVEAEPGQTVEAEMLIRREDLAYWDLRIDRWRVEAGTYRIDVAASSRDIRSSVEVVVPDGDAPIPLNWDSTLGELMAHPVAGPALAQAMAGALEGFAGAGDLMPAGAMAQMAGSLPLRALLTLGGDAVTPETLNQLIVLANGSPRK
Regarding B5, in test [1], the “Experiment 5-1 % conv” value worked out at 31.4%. Besides, the “Experiment 5-2 % conv” value in test [2] is recorded as less than 0.5%. Also, the “Experiment 5-3 % conv” value in test [3] is less than 0.5%.

These data come from patent publication US20240026407A1, “MODIFICATION OF SAPONINS” (GLAXOSMITHKLINE BIOLOGICALS SA, priority 2020, published 2024).
